Assay results taken from publication PMC10397247.

T1: 4H4038-bA
T1 chain: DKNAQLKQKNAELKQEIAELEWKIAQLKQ

T2: 4H3907-bA
T2 chain: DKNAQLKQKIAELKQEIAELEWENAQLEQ

T3: 4H1406-bA
T3 chain: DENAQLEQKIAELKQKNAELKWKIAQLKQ

T4: 4H3601-bA
T4 chain: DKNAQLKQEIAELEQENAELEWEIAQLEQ

T5: 4H2134-bA
T5 chain: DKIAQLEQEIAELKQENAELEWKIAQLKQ

T6: 4H3592-bA
T6 chain: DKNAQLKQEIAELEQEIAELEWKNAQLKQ

T7: O2-bH
T7 chain: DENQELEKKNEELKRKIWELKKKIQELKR

T8: O6-bH
T8 chain: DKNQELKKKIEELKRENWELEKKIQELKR

T9: O5-bH
T9 chain: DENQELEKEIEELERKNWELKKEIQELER

T10: O12-bH
T10 chain: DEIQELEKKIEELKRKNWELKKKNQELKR

T11: O8-bH
T11 chain: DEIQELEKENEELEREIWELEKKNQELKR

T12: O14-bH
T12 chain: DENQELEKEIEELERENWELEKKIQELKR

T13: O16-bH
T13 chain: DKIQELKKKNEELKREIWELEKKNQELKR

T14: O15-bH
T14 chain: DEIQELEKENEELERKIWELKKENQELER

T15: O4-bH
T15 chain: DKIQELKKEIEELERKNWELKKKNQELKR

T16: O9-bH
T16 chain: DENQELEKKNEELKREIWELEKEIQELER

T17: O13-bH
T17 chain: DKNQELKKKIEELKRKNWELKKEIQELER

T18: O7-bH
T18 chain: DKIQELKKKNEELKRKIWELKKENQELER

T19: O3-bH
T19 chain: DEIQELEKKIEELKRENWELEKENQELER

T20: O11-bH
T20 chain: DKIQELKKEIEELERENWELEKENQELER


Legend:
Assay in all cases: two-hybrid library CCNG1;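 also: natural log of median RNA to DNA barcode read ratio; higher means stronger binding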
[1] = target: T1, 4H4038-bA
[2] = target: T2, 4H3907-bA
[3] = target: T3, 4H1406-bA
[4] = target: T4, 4H3601-bA
[5] = target: T5, 4H2134-bA
[6] = target: T6, 4H3592-bA
[7] = target: T7, O2-bH
[8] = target: T8, O6-bH
[9] = target: T9, O5-bH
[10] = target: T10, O12-bH
[11] = target: T11, O8-bH
[12] = target: T12, O14-bH
[13] = target: T13, O16-bH
[14] = target: T14, O15-bH
[15] = target: T15, O4-bH
[16] = target: T16, O9-bH
[17] = target: T17, O13-bH
[18] = target: T18, O7-bH
[19] = target: T19, O3-bH
[20] = target: T20, O11-bH

| Binder | interaction score [1] | interaction score [2] | interaction score [3] | interaction score [4] | interaction score [5] | interaction score [6] | interaction score [7] | interaction score [8] | interaction score [9] | interaction score [10] | interaction score [11] | interaction score [12] | interaction score [13] | interaction score [14] | interaction score [15] | interaction score [16] | interaction score [17] | interaction score [18] | interaction score [19] | interaction score [20] |
| --- | --- | --- | --- | --- | --- | --- | --- | --- | --- | --- | --- | --- | --- | --- | --- | --- | --- | --- | --- | --- |
| DENAQLEQKIAELKQKNAELKWKIAQLKQ [4H1406-bA] | -0.125 | 0.571 | -0.836 | 1.83 | 1.62 | 0.233 | – | – | – | – | – | – | – | – | – | – | – | – | – | – |
| DEIQELEKKIEELKRKNWELKKKNQELKR [O12-bH] | – | – | – | – | – | – | -1.26 | 0.619 | -1.26 | 0.775 | 1.12 | -1.38 | -0.436 | 0.483 | 1.12 | 0.102 | 0.332 | -0.37 | 1.56 | – |
| DKIQELKKEIEELERENWELEKENQELER [O11-bH] | – | – | – | – | – | – | -1.24 | -0.451 | -3.76 | 1.01 | -0.273 | -0.342 | -0.352 | -0.515 | 1.29 | -1.15 | -0.515 | 0.102 | 0.233 | -0.129 |
